{"source": "a protein production outcome set (Wang et al. 2014)", "assay": "label from the status in PepcDB records"}
{"sequence": "MQHRQLWYRGGLGLALALVVVGYRGSRTVIRAVPRAQLSVDQKMPSTSSVFSASKLTLQDEANNSAPQVSPEAQESSGPDKQSDLTSGSSTSSSGISSGNSSGSTILENAKNNQTSETATTKAAEMVNGTVKMTLDTNGTLHLSGGSFGASLGSATGSWIVKTLTANGYQPTQVSKIVIDGKITATTMTNYSYLFANLPNVTAIDGLANLNLTGVTDISWLFLNCSQLGALDLNSWDVSSVIRMEGTFQNCAKLVTLNVANWNTDSLQYLIDTFNGDSSLTSLPVGKWNTSKVATMMRTFTDCSSLTSLDIANWDTRVVTNMSAIFRGMSKVKSLPIDKWQTGRVVNMQLVFSGDTSLESINVANWDTSRATALDGTFAKLPNIKSLPLDNWNTSNVQTIRSTFYGDTNLTQLPIDNWNVGKVFDFNSTFSGCASLTTAPVANWNTQSATNLGYTFEGMTSLTSLPVDNWQTGTVTNMAGTFSGVSQLKSLPISKWNTKNVQNMAGTFSKMSSVTALPVDNWQTGNVTTMRGIFTKVSQVKNLPVGKWNTAKVVDMGQVFYGNPQLTSLPIENWNTSSATDFSQLFAEDSGLQTLSLGAWNTTKVTNFESVFQNTSLDKLDLTGWNTNSAQTYTNAFSSKLPPKRLLLGPSFNFFKSESWHLPNPSSEAPYIGKWRSLNNKKVYTSADLMTKYDGKTIVGEFEWATGNTITVKYVDAAGKYLAPDTKISGATGDAYHIKPIEIQGYVPDQPDGVQGNFTDKDETITLMYNPGGLMFVSAPQTINFGQNPITGKSENYGASYDTGLVIQDGRSIGSTWSLNATLSASGFTSKQSGRPLAAVLSYKDQQTGGGSILTPGVARLIVNNHQTVSNQGVNILGQKTALGALSLQVPTDRALTDTYQATVTWTLNQGVPNR", "values": [{"measurement": "protein production", "result": "failed"}]}
{"sequence": "MKIVIIGGFLGGGKTTVLNHLLAESLKESLKPAVIMNEFGKMSVDGALVSEDIPLSELTEGCICCAMKADVSEQLHQLYLKEQPDIVFIECSGIAEPVSVLDACLTPILAPFTTITHMIGVIDASMYKHIKSFPKDIQGLFYEQLAYCSVLFVNKIDSADVETTSKLLKDLEVINPEADIQVGMHGSVTLPISVRQMTATSDNKHESLHKTINHQFVQSPVTCTKAEFIKRLACLPSHIYRLKGFMTFEDTTHTYLIQFTQGQYELTPVAFSKKVPEYLVLIGKGISKEDYQCLEQLEHHHHHH", "values": [{"measurement": "protein production", "result": "failed"}]}
{"sequence": "MTSVTDRSAHSAERSTEHTIDIHTTAGKLAELHKRREESLHPVGEDAVEKVHAKGKLTARERIYALLDEDSFVELDALAKHRSTNFNLGEKRPLGDGVVTGYGTIDGRDVCIFSQDATVFGGSLGEVYGEKIVKVQELAIKTGRPLIGINDGAGARIQEGVVSLGLYSRIFRNNILASGVIPQISLIMGAAAGGHVYSPALTDFVIMVDQTSQMFITGPDVIKTVTGEEVTMEELGGAHTHMAKSGTAHYAASGEQDAFDYVRELLSYLPPNNSTDAPRYQAAAPTGPIEENLTDEDLELDTLIPDSPNQPYDMHEVITRLLDDEFLEIQAGYAQNIVVGFGRIDGRPVGIVANQPTHFAGCLDINASEKAARFVRTCDCFNIPIVMLVDVPGFLPGTDQEYNGIIRRGAKLLYAYGEATVPKITVITRKAYGGAYCVMGSKDMGCDVNLAWPTAQIAVMGASGAVGFVYRQQLAEAAANGEDIDKLRLRLQQEYEDTLVNPYVAAERGYVDAVIPPSHTRGYIGTALRLLERKIAQLPPKKHGNVPL", "values": [{"measurement": "protein production", "result": "not failed"}]}
{"sequence": "MMRYKEEKEVKKEAFRKYLESSGVLDSLTKVLVSLYEQNDKPSSALEFIQQKLGGPSVSDYEKLQAEKSDLQIKYNELLAKHQETLRELNGVKSLHSRNSSKDDADRETLEAEHTTLVTPHH", "values": [{"measurement": "protein production", "result": "failed"}]}
{"sequence": "MIGKVLEGRYEIVSELGGGGMARVYRGQDRLLNRNVTIKILREQYASDKEFLARFQREAQAVASLSHPNVVSIYDVGQEDDLHYLIMEYVEGRSLKDLISERAPLPPLEAIDISLQICDALEHAHENGVIHRDIKPHNILITRNGRVKVTDFGIAQAVSEVTMSQSGTMIGSVHYLAPEQARGGVIGATADIYSLGIVLYEMLTGDLPFHGETPVAVALKHLQENPRPVRELNPNVPPALERVVMRTLEKDPARRYPSAAALRSDLLAVRNALADATFATQVLPAIETPDPPSTLPKPRRRPRVWAWVLMALLFLGLAAAGLWAGFRYYLAVGETLVPSVVGLPEGQALEQLAAAGLRGQVIARQYDASVPAGQVMAQDPGPNQRVRRGRVVALTVSQGARLVRVPSVIGETERNARLILENANLKVAADTLKVYHPSIPAGSVVDQNPPANTQQPEGTEVRLIISKGPEPQFTTAPSVVGLSLAEAQQKLLEAKLKQGTLTYQRSDNQFPGYIIAQDPREGSNVLQGSAINLVVSQGPGPVQKQVGVTIDPAPDDKDHEVRIVVTDAKGTNEVLKKKQKMGQQIQATINYFGKGKLQVFRDGNVIYEQDLQ", "values": [{"measurement": "protein production", "result": "failed"}]}
{"sequence": "MANFKVVVSDPKEARAYQIDIKDAEANALIGKSIGDVVDGSIFGLAGYKVQITGGCDGSGFVMKPDLPGPRRQRILTATGVGYVPKLPGQRRRKMMRGKEIAPDIVQVNAKVVEYGSKSIKALLGLETAEEAPAAELEHHHHHH", "values": [{"measurement": "protein production", "result": "not failed"}]}
{"sequence": "MATDTAERRIAHVRGVTVTAIACLAGVAAAVVSAAVADGAGDTLGLYVLVGGIIVQFPLLRVLEMAGLQLDVDDFGAKDYLYIAFMTFAMWFVCWTVLLTTGASV", "values": [{"measurement": "protein production", "result": "failed"}]}
{"sequence": "MKEVIHSTLAPKAIGPYSQAIATNDLVFVSGQLGIDVSTGEFKGADIHSQTTQSMENIKAILKEAGLGMDSVVKTTILLKSLDDFAVVNGIYGSYFTEPYPARATFQVAKLPKDALVEIEAIAIK", "values": [{"measurement": "protein production", "result": "failed"}]}
{"sequence": "MMNYKQLLIDNFAFKTSYVAQFVPGMSIKETKDYIAVDCGLPADTFNIITLLNNNLTEGVEKLYKEVEYYNQKKFPMSVWLWDEEQERDIKSELNKIGLKEAEQNIAMVADLKTISPTINMPVSFTIQQASSPGLIKKFGETLANLFGTSEEAIHVQAFYNQISNLDLWNSENMKLFLGFYEGEIVTVGSLICSKDSIGIYDIATKEEMRGRGFGSTMFNFLLQEAQKFKNTYCVLQASTDGINIYKKSGFQAIGKMTVLENRHVIE", "values": [{"measurement": "protein production", "result": "failed"}]}
{"sequence": "MADQSFAVLGLGKFGMALTVALLKAEQDVLVIDSNEEVINDVAHLVTHAVIADATDEDELRDLDIGSFDHVFVTMGENVEGSIITTMLAKKLGAPDVTTRANNHNHRLVLEKIGADHVIEPEQDMARQLIFRQLHPNVVNYFNLSKNISLIEVSVENSRFFNQSLGDLDFRKNYDVSVIGIVHDGKLNQVPLATDVIAPHDQITLIGSNKAVQRLDDILREEK", "values": [{"measurement": "protein production", "result": "failed"}]}
{"sequence": "MTDLEHAVESNRRAWDASADSHLRGGGWQELSLAVQETGFSCLDETLAGVLRNLDLAGKAAVQVGCNNGREVLSLYAFGVARAVGIDQSAAFLAQARQLAERSPHQPRFVEANAYELPAELNGQFDLLLITIGVLNWMPDIARFFASVSGLLKPGGQLAIYETHPFLEMLEPESERPFELRNDYFTDTPHVSREAIVYEGSGSDTGIASYWYVHPLGDILGGLLGAGLRLSHFKEYPHSNREELYDLYEDGPLAIPMCYTLVAVKA", "values": [{"measurement": "protein production", "result": "failed"}]}
{"sequence": "MKQLTILGSTGSIGNSTLSVVRANPELFKVTALVAGRNVREMAQQCLEFSPRYAAMSDEHSAKSLRLLLAEQGSDTEVYSGETAACELAALDDVDQVMAAIVGIAGLPSTLAAIRAGKQVLLANKESLITCGKLFMDEVKRSRAQLLPIDSEHNAIFQSLPERIQRQLGYSSLNENGVSRIILTGSGGPFRETPLSQFSDVTPDQACAHPNWSMGRKISVDSATMMNKGLEYIEARWLFNASAEQIEVVLHPQSVIHSMVRYHDGSILAQMGTPDMRTPIAHAMAYPMRVSSGVAPLDFCKVGALTFTTPDYQRYPCLKLAIDACNAGQAATTALNAANEISVMAFLDSKIRFTDIEVINRTVVEGLLLSEPTSVEEVLVIDRKARDVAAQVIAKLNN", "values": [{"measurement": "protein production", "result": "not failed"}]}
{"sequence": "MLNLSQNGCSVWVASSTEMVLTPTAVALGKFDGVHLGHQRVIQPVLQSTRSAQTWGDALDSSAQSANPPAAPQERIYSTVVTFRPHPQEFFTGQARTWLTPLDEKVQQLRSLGVDQLVLLPFDKELTALSPEEFVEKILVQQLRCQRISVGQDFCFGKQRRGTAKDLQLIAAKYHIPVSIVPLQTSDGQFLEDGNCGSFESLEDAPISTSLIRQALETGDIKTANRFLGRPYILIGVVVEGEQLGRTIGFPTANLELPKDKFVPRQGVYAVRVKILGESADANIPLEILGVMNIGNRPTVNGTYSSVEVYLLDWSGDLYGKELAVQLVDFLRPEQKFPSLEALKAQIQQDCTVARQILSREN", "values": [{"measurement": "protein production", "result": "failed"}]}
{"sequence": "MSLRILIVDDEKLTRDGLIANINWKALSFDQIDQADDGINAIQIALKHPPNVLLTDVRMPRMDGIELVDNILKLYPDCSVIFMSGYSDKEYLKAAIKFRAIRYVEKPIDPSEIMDALKQSIQTVLQHQAQQDSEGHHHHHH", "values": [{"measurement": "protein production", "result": "not failed"}]}
{"sequence": "MKLAKKMILAAAVLPLTLGTTAALAYGGHGWDKEGDGHCGDRGERGIWKQLDLTAEQQAQLKEMREAGREEMRANRGQSHDAMKALHAQERALVLAADFDQAAAENLAKQMVDQQVTHRVKMMEKRHQMMSILTAEQKAKLQTLQQEKMAECMQDGQHGKGKKHASQLEHHHHHH", "values": [{"measurement": "protein production", "result": "not failed"}]}
{"sequence": "MPRSTAASAPLTVRPFSLVPLMAAYMACTMSMMAFVSLIGPISRALHLETWHAGAAVTVSGVIWMLLARPWGQASDRFGRRRVLLLGTAGFTLAYWALCLFIDLSLQSLPSVAMAFLGLMLGRGLIGAFYAAIPVGGFALIADNVEPQHRARAMATLGAANAVGLVLGPAVAALLARYSLSLPFYAMAVLPLLAFLVLRYQLPRQELHLAQAPTRVRLGDPRLRRPMVVAFVAMLCVSVAQITVSFYALDRLHMSPADAAQTAGVALAMVGVALICAQLVVRKLEWPPLRMIRYGALLSALGYAGSMLVDSAWGLWLAFFVSAAGMGGVFPSFSALAANAVEASEQGATAGSIGAAQGLGVVIGPMAGSLIYAIEPRLPYLLAAVLLVLIAIWPAPQPKDL", "values": [{"measurement": "protein production", "result": "failed"}]}
{"sequence": "MKFSRFRDSKLFFWTIEILAVVAILFVLLQMKYIFSPIGIIVSTLFMPILVAGFLFYLFNPLVLFLEKRKVPRLLSVIVIFIAFITLVVLAVMQLGPTLADQVAELAKAIPGYWQDFEKWLQGLSNNSALKDIDMKQELEKLNISLPKIMSVVVDGVASSFGAIVSFVSSFVMILVTVPFIVFYMFKDGHKFVESSGKFFPAGIRSEAKQIIKEMNKTISTYISSQAIDCMFVGLFTFIGYLIIGQPYALLFGFIAGATNIIPYLGPFIGAAPAVIVALFTSPVQALLVIVVVTIVQQIDSNLLSPYIMGKSLSIHPLTIIIILIVAGNLAGIFGMILGVPLYAVVKTIIVNVNRLIKLRRGQLAIDNNLPNPDTPKK", "values": [{"measurement": "protein production", "result": "not failed"}]}
{"sequence": "MTEYVHGYSEREALRLSEQAETLEKLLHHDTVYPPGAKVLEAGCGIGAQTVILAKNNPDAEITSIDISPESLEKARENTEKNGIKNVKFLQANIFSLPFEDSSFDHIFVCFVLEHLQSPEEALKSLKKVLKPGGTITVIEGDHGSCYFHPEGKKAIEAWNCLIRVQAYMKGNSLVGRQIYPLLQESGFEKIRVEPRMVYIDSSKPELVDGFILKTIIPMVEGVKEQSLKMQIIKEEEWEKGIEELHKTAEHGGTFCYTFFKGWGTK", "values": [{"measurement": "protein production", "result": "failed"}]}
{"sequence": "MGRDYQSEALAEQHLREAHLLAPDHAAVLIGLYRFYFYKGRLGEALEVAQACLCKAARDNGLASDWRKVRRGDAEFSSYSAVLPRFYLFALKAYAYLQMRLGQLDEGHAAVEKLLELDPTDKVGAAVLLDVWRRIGLEHHHHHH", "values": [{"measurement": "protein production", "result": "failed"}]}
{"sequence": "STMSGYLYRSKGSKKPWKHLWFVIKNKVLYTYAASEDVAALESQPLLGFTVTLVKDENSESKVFQLLHKGMVFYVFKADDAHSTQRWIDAFQEGTV", "values": [{"measurement": "protein production", "result": "not failed"}]}
{"sequence": "MARSFSLAKNPLFWQVAIAGIILDQLSKLWVSQAMDPVGTTWPLWSGVFHFTYVLNTGAAFSAFRGGAGWLKWLSLAVSVGLIIFAGKVPLRKLEQLGYGCILAGAVGNGIDRFLFGHVIDFLDFRLINFPIFNLADVSINIGIAALLWASFFPVSSRKVD", "values": [{"measurement": "protein production", "result": "failed"}]}
